Experimental data taken from the DeepSol protein solubility set.

Assay: soluble on expression in E. coli; label from the status in PepcDB or PDB records

Sequence | soluble on expression in E. coli
MSLDRVEVLGVEFVEFTADQTEAEALGSLLGAMGFRAVASHREKAVTLWRQGCDHRGINVVINTEQKGFAHSSYLVHGASAYAIGLKVPDASAAVERARALGAEIFLPESGEGEGAMAAIRGMGGGLIYFVDEIDDVWSREFVAPGDDRQPAATLVAIDHVAQSMKEEQLPSWLLFYTSILDADKLAQVDIVDPAGLVRSQVVENASGTLRLTLNGADNHRTLAGHFIAESFGSGVQHVAFRTDDIFEAAEHMRRSGFRALAISRNYYDDIEVRFALEPGFVDRLRDENILYDRDEDGEYFQIYGPTFGEGFFFEIVERRSGYRGYGAANAPFRIAAQKRCLRPAGMPAEGSSRVDLQVCRPKKGIITITTDPNSSSVDKLAAALEHHHHHH | soluble
MSLDSNTVAVNPDSLILKRFLKTNQLNGIMIVTGPDGKAQVFSNQSKVDGSPVSIKDYFPLASLQKLITGVAIQQLIDKGKLSLNTPLSKYYPQIENSENITIQNLLTHTSGLADRKEVPQQVLTTQEQQLDFSLTNYRVTYRKKWKYANINYALLAGIISQISGQNYATYVRQHFLTAGKGWHFKKYIQIKDKSKLAALSVMDQSTTWDKLSKEVTSTFGAGDYASRPVDYWKFMMAFINDQFVPVSEYQRSMKMTSKSYYGGLYISQKMLHANGGGFDTYSCFAYSNPKTKQVMVLFITNGKYKRVKSLAAKAFKLYADSYALRKNETSEGHHHHHH | soluble
MSLDSRPKLPQTLSRGWGDQLIWTQTYEEALYKSKTSNKPLMIIHHLDECPHSQALKKVFAENKEIQKLAEQFVLLNLVYETTDKHLSPDGQYVPRIMFVDPSLTVRADITGRYSNRLYAYEPADTALLLDNMKKALKLLKTELEGHHHHHH | soluble
MSLDSTTIIIYGEKLSDSQRAEVKELLEISDQEMVEEHDVTGQDYADYINGNPRSNMYSSAGIILESQGAGLEVNIVTPENITEVTAEMYENALLTAGAENATVNVVSPVQVSGHSALTGIYKAYDVEGEQLDKERMELANEELNVATDLVDNGDVNQEEVSNLLTEIKKMIAEQNPATREDVEQIVSEQLDQLEINLSEQDRQMLVDLFDKMKDLEIDFGAVKEQLDSITNSIVEKAEDLGLDEGFWDKVANFFRDLFRSIGNLFGEGHHHHHH | soluble
MSLDVALAPPGPLASGGLRVTALGGISEIGRNMTIFEHLGRLLIIDCGVLFPGHDEPGVDLILPDLRHIEDRLDDIEALVLTHAHEDHIGAIPFLLKLRSDIPVVGSKFTLALVAAKCREHRIKPVFVEVVGGQSSRHGVFECEYFAVNHSIPDALTIAVYTGAGTVLHTGDIKLDQLPLDGRPTDLPGMSRLGDAGVDLFLCDSTNAEIPGVGPSESEVGPTLHRLIQGADGRVIVACFASNVDRVQQVIDAAVALGRRVSFVGRSMVRNMSIARDLGFLRVDDSHMIDIAAAEMMAPEQVVLITTGTQGEPMSALSRMSRGEHQSITLTSGDLVVLSSSLIPGNEEAVYGVIDALAKIGARVVTNAQARVHVSGHAYAGELLFLYNGVRPRQVMPVHGTEGHHHHHH | soluble
MSLDVDSKTLIHAGKLIDGKSDQVQSRISIVIDGNIISDIKKGFISSNDFEDYIDLRDHTVLPGLMDMHVHFGQEYQSKAQAPIKVEREMQAILATQHAYVTFKSGFTTVRQVGDSGLVAISLRDAINSGKLAGPRIFAAGKTIATTGGHADPTNGKAVDDYDYPVPEQGVVNGPYEVYAAVRQRYKDGADGIKITVTGGVLSVAKSGQNPQFTQEEVDAVVSAAKDYGMWVAVHAHGAEGMKRAIKAGVDSIEHGTFMDLEAMDLMIENGTYYVPTISAGEFVAEKSKIDNFFPEIVRPKAASVGPQISDTFRKAYEKGVKIAFGTDAGVQKHGTNWKEFVYMVENGMPAMKAIQSATMETAKLLRIEDKLGSIESGKLADLIAVKGNPIEDISVLENVDVVIKDGLLYEGHHHHHH | soluble
MSLDYGINFWSDNDFIIEDGQVKINYKTKPAIIDIVKKVREEGYRGPLLLRFPHLIKKQVDKIFTHFETSIKQYHYKGQFKAVFPLKVNQFPNFVLPLVELSQNRCYGLEAGSKAELIIAMAYTNKGSPITVNGFKDKEMISLGFIAANMGHEITLTIEGLNELETIIEVAEEMGKPCPNIGLRIRLHSSGIGIWAKSGGINSKFGLTSTELLEGIRLLEKHKLIEKFTMIHFHIGSQISDISPLKKAMREAGNIYAELRKMGAKNLKSVNIGGGLAVEYTQHEGSPNRNYTLDEFAGDVVFSLKEIAKNKKEPEPDIYIESGRYIAASHALLVAPVLELFSQEYDEKALHLKDKNPQLIEELNELYNTVNEKYAIEYLHDSLDHMESLLTLFDLGYIDLQDRSNTEILVHLIIKKVIKILKHKNHSDIIRIQEQVQERYLLNCSFFQSLPDYWGLEQSFPVMPLDRLNKRPTRSASLWDITCDSDGEIGFDLNKPLFLHDVDVTTEEYFLGFFLVGAYQEVLGMRHNLFTHPTELSVEFEEDGTHSVTNLLEAQTILDVLDDLDYDTKEIERRLKQRIEDSELIDDETRKEVLGQLYVMLSENGYLRTITNGEGHHHHHH | soluble
MSLEDCVISEWGPWTQCALPCNPSGSRQRSADPIRQPADEGRACPDAVEKEPCSLNKNCYHYDYNVTDWSTCQLSEKAVCGNGIKTRMLDCVRSDGKSVDLKYCEELGLEKNWPMNTSCTVECPVNCQLSDWSSWSQCSQTCGLTGKMIRKRTVTQPFQGDGRPCPSLMEQSKPCPVKPCYRWQYGQWSPCQVQEAQCGEGTRTRNISCVVSDGSAEDFSKVVDEEFCANTELEGHHHHHH | not soluble
MSLEDTLQAPTPLQIERWLRKQFYSVDRNREDRISAKDLKNMLSQVNYRVPNMRFLRERLTDLEQRSGDITYGQFAQLYRSLMYSAQKTMDLPFLEASTLRAGERPELCRVSLPEFQQFLLDYQGELWAVDRLQVQEFMLSFLRDPLREIEEPYFFLDEFVTFLFSKENSVWNSQLDAVCPDTMNNPLSHYWISSSHNTYLTGDQFSSESSLEAYARCLRMGCRCIELDCWDGPDGMPVIYHGHTLTTKIKFSDVLHTIKEHAFVASEYPVILSIEDHCSIAQQRNMAQYFKKVLGDTLLTKPVEISADGLPSPNQLKRKILIKHKKLAEGSAYDENSPLGDLLRGVLDVPACQIAIRPEGKNNRLFVFSISMASVAHWSLDVAADSQEELQDEGHHHHHH | not soluble
MSLEDTTITFWHAMNGVQEEALTKLTKDFMKENPKIKVELQNQSAYPDLQAKINSTLTSPKDLPTITQAYPGWLWNAAQDEMLVDLKPYMDDDTIGWKDAEPIREVLLDGAKIDGKQYGIPFNKSTEMLFYNADLLKEYGVEVPKTLEELKEASKTIYEKSNKEVVGAGFDSLNNYYAIGMKNKGVDFNKDLDLTSKDSQEVVDYYRDGIEAGYFRTAGSDKYLSGPFANKKVAMFVGSIAGAGFVQKDAEAGGYEYGVAPRPEKINLQQGTDIYMFDSATPEQRTAAFEFMKFLATPDSQLYWAQQTGYMPILESVLHSDEYKNSKTTKVPAQLENAVKDLFAIPVEENADSAYNEMRTIMESIFASSNKDTRKLLKDATSQFEQAWNQEGHHHHHH | soluble
MSLEFGRELPGKRDPQARLKDYKELYLDFSATQIKNQAARCMNCGVPFCHSGCPLGNIIPEFNDAVYRNDWEEAAEILFSTNNFPEFTGRICPAPCEASCVLGINKPPVTIENIEKSIVETAFEKGILKPNPPKKRTGKTVAVVGSGPAGLAAAAQLNSAGHTVTVFERADQVGGLLRYGIPDFKLEKWVIDRRVKLMEEEGVIFKTNTNVGVTVKAKDIVKEFDAVVLTGGSTVGRDLPIPGRQFKGVHFAMEFLSQQNKRVANIKPEIDHTGEAYKNGDLLATAKNVVVIGGGDTGSDCVGTSNRHGAKSVLQFELMPKPPENKNETTPWPNWPMILRTSTSHEEGCDRLWSITTKEFIGDADGNLTGLKIAEMGWVTAPDSKLPKYQELPGTERVIPCELTLLAMGFLHPQHAGMLNELGVEYDERGNIKANGKYQTNVDKVFTAGDMRRGQSLVVWAISEGREAARNVDIFLMGTTSLEAKDHGMLDTVYAEGHHHHHH | soluble
MSLEFLQRDQAPLTAEEWEQIDKTAYEVFKSTVVCRKFMPVVGPFGAGHQVVSYDVLYGVEPGVCEVKPGQEYKVCEPVRTGERKHVPVPTLYKDFVISWRDLEHWRQFNLPVDTTGVAAAASSLAVAEDKLILFGNQEMGIEGFLTAKGTLREELSDWEKVGNAFQDVVKGISRLVEKGFYTNYYLIVNPKRYFLLNRIHDNTGLLELEQIKKVVKEVYQTPIIPEDIVLLVSASPANFDLAIALDVNVAFVETSNMNHTFRVMEMVVPRIKRPEAILIFSSEGHHHHHH | not soluble
MSLEKAARHKQEVDTVQDKKVVNITGQGSTSRFFLPTALIRLRDASAQSIRTVLNQFFDRADDALFELADRAGTDQEQTRYFDAMRELRLRRKSMTVAVLHHVGQAFNDIGKFRPQSTVSSLDSVDEGFLSLLDHAELEQQVAIDNMVTKLRYQYSEALRHLSLRVRHLLPGVTLEDDQMPLCPEVLCGGLAAASKDLDVDIKARLIVLKLFDQLLVTSLGEVYHGANVTLIKEGVLPDSKAVRPVQTARSRQGAPVPPPSVVYREADWYGVGQPQAEVSAATFSQLSALLRQGQPAYGDGQAPASGGQWLQTDALLARLSQVQTAFGNDPGAPLVSLSQQLQPVLQNSSGQSLRPGQVDNDVINLVAMLFEFILDDRHLHSVMKSLLGRLQIPILKVALTDKNFFNRGGHPARKLLNEMALAATGWTEKRPGQRDPLLDKISAVVNRILAEFSTDVSLFNELLDDFNQFSDLDQRRSDLVEQRLRDAEEGRARHEQATADTKELLHEAMDGRLLPEPVQDMLNGPWSHYLHWLALHESTDSEAWQRAKTLTEQLIWTIDPVPLTATTHELLQQAIPQVIEQLRGALEGVAWDGLSVEMVVRDLELVHLDVFQRLVIAPSEAAGNDHAQIDDSQEAPAVRADAVPSDTTNTSADVSHPAPALPVAADDPKEAVVARVPEPTRAQPVVAEEWLAKADGLRVGCWLELNRDGSQIRCKLAAFIRAVDKYIFVNRSGAKVAEYRRNELAEMMAQGHIEILDDGLIFDRALESIIDNLRTSRREGHHHHHH | not soluble
MSLELENFQEYNDPVLYDKENRYTGDIPFLLKWAGKVDGTIVDLACGTGRATIPLASKGYKLMGVDVHKGMLEAAREKSSRLNLPIEWIKQDCTKLSLNLMSPFIYSVGNVFQHFLTNEEQDSFLTSVNKHLKESGIFIFDTRFPSKEELLQPNTEEYWKSYQDTDTGQKVDVYTISQYDPLTQIQHYTMIRKSVNAEGLAVNEKRTNIRLRYVFPKEMERLLSANGFEIIDVYQDWQETPLTRDSDQMIYVCKKSSEGHHHHHH | soluble
MSLELPAEVQEMPIYREWISGILAGKIASPFWEMAQPQKNQHCLDIGCGVSFLIYPWRDWQAFFYGQDVSNVARDTLNSRGSQLNSKLFKGVELGAAHQLKYTLSYFDLAIATGFSCYFPLEYWTSVLQAVKRVLKPDGHFVFDILNAAHPQAEDWAVLETYLGAEVFLEPVTEWEKIINAAGAKVVGRQPGEFFDLYKLRLEHHHHHH | soluble
MSLELSDCSVPLTKEDIKDFEMELNIKIPAAMKNFYLKFNGGMPSPYCFQPQDEDLDWVEINAFFPIKERTNAFETIEVIAKDIWSKNLMPCNLLPFAMDSGGNYYTLNLKNKKIYYYLTDEWDENASKEYNFETNTRYIAQSFNYFINHFIEEEEEGHHHHHH | soluble
MSLELTVFSIGDWGEKTECLVNVTTKMGSLESAMNPKFIISVGDNFYQRGVKSVEDAAWTEILEEPFGKLSKHLKVHSCLGDHDWRGSTTAQIDRTNYANNTRWYLPGYWWYEKVTFTSEVSLPSLFEKSGLGEISANNSFHFNSSKTENSTSCEIDCLDEIVDNLNTMVNRNNSWNEDLSYKTSISEYFSEKQVNSTAVFIYIDSWTLTQDPFKKTSISYKYSQLEFIEQTLKAAVFENVDWIILVTHYSIYSSGLHGPHTRLASILMPLIKKYRVDFIISGHDHHSEILVPEDFNSYFQIVGASSKEGHHHHHH | soluble
